What was measured:
Test in all cases: cleavage_in_vitro
[1] = tested on: T1, OMNI-106 (metagenomic, unknown); conditions: TXTL; PAM NRKAACNN
T1 sequence: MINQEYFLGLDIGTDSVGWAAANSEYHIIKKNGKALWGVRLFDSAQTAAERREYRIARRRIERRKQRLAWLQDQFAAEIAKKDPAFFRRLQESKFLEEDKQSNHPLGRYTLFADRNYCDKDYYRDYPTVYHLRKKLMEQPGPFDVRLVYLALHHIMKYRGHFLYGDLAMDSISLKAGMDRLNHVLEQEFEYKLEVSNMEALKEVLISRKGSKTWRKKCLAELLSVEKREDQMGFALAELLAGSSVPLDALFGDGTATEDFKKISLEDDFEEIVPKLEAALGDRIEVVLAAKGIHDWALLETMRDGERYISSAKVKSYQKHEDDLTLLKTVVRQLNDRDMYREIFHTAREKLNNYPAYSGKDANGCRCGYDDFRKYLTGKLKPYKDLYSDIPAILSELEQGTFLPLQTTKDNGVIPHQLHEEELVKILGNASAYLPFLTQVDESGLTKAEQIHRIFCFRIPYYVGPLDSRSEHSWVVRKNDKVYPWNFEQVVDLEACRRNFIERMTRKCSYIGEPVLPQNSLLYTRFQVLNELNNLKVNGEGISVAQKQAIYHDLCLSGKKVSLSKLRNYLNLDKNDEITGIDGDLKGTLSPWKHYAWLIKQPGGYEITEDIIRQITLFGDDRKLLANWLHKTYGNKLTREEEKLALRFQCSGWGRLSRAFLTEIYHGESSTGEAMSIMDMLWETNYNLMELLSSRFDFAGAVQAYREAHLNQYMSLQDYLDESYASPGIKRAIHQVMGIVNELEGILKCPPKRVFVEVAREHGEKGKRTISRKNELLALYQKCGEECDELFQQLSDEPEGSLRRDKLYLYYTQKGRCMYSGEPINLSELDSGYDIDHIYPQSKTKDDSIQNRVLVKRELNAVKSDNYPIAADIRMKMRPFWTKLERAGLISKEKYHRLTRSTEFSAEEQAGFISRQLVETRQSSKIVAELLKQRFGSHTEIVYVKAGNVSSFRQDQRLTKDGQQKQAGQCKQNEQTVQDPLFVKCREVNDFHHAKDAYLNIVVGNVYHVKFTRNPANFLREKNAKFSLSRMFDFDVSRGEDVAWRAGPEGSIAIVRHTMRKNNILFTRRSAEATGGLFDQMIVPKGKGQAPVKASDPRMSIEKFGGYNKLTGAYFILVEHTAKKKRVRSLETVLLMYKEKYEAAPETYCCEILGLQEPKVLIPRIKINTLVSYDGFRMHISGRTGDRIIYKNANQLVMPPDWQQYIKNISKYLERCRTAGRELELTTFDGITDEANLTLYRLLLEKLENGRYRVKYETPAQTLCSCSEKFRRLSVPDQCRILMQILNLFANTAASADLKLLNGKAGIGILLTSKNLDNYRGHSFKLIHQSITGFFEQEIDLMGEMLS

[2] = tested on: T2, OMNI-96 (metagenomic, unknown); conditions: TXTL; PAM NYAAGNNN
T2 sequence: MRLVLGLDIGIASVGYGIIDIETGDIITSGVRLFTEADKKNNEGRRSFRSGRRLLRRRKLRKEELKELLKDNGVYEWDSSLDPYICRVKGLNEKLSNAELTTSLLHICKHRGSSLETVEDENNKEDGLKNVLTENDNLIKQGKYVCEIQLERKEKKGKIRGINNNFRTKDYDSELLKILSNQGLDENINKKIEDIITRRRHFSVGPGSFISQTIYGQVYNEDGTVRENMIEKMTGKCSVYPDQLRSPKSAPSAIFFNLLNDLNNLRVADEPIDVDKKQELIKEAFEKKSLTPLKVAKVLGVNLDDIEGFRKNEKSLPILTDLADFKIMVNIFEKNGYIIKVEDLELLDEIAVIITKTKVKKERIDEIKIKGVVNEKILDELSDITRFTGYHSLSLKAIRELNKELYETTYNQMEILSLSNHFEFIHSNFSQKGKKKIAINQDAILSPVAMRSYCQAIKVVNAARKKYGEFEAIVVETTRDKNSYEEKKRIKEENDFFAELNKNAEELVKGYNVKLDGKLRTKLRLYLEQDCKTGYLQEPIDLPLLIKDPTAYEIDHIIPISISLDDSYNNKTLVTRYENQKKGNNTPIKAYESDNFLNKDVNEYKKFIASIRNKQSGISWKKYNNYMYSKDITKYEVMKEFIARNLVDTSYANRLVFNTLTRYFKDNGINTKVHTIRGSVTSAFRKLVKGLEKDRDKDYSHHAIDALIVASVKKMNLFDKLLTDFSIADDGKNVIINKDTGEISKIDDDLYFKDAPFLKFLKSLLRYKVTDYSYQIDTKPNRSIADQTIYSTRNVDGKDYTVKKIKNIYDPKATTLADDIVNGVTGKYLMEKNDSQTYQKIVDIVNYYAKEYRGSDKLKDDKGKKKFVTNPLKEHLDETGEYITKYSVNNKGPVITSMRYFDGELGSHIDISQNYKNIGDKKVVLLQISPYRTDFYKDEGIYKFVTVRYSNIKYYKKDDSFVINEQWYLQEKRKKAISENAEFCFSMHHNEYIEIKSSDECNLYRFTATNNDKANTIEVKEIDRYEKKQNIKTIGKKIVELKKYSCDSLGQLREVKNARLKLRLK

[3] = tested on: T3, OMNI-99 (metagenomic, unknown); conditions: TXTL; PAM NAGACNNN
T3 sequence: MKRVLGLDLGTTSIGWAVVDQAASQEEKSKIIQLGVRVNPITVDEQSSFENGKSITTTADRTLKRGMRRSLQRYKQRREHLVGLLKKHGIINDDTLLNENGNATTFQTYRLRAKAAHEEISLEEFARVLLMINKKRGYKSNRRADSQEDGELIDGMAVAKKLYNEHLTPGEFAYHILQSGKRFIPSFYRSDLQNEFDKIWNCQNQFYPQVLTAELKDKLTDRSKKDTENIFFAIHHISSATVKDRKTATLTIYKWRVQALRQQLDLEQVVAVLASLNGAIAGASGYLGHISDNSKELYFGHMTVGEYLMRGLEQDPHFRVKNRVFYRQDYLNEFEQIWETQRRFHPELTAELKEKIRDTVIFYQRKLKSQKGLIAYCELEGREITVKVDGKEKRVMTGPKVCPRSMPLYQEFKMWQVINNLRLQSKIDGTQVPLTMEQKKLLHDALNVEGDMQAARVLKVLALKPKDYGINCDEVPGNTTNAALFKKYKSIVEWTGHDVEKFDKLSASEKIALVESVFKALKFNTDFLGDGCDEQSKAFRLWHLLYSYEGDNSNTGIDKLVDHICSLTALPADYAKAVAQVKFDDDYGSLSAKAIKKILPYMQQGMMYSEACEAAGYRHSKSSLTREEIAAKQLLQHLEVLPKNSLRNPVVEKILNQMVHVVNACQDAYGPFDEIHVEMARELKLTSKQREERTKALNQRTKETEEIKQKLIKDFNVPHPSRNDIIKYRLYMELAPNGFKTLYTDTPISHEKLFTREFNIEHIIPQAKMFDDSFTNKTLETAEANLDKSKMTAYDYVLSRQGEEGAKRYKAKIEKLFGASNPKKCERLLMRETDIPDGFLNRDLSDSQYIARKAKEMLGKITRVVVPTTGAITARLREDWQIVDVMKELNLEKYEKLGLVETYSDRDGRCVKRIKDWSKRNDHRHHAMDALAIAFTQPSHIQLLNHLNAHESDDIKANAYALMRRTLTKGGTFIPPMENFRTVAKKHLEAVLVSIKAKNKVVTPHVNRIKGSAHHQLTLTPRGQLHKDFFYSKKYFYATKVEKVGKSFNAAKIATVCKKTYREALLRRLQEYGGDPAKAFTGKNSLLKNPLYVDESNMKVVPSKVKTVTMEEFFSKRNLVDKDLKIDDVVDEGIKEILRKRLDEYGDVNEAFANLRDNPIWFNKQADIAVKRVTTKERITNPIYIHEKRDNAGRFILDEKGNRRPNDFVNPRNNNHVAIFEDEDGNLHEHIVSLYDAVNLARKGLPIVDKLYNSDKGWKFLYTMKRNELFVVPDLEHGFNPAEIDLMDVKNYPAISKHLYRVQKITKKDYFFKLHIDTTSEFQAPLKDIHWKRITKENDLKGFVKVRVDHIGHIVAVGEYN

[4] = tested on: T4, OMNI-98 (metagenomic, unknown); conditions: TXTL; PAM NNAAATNN
T4 sequence: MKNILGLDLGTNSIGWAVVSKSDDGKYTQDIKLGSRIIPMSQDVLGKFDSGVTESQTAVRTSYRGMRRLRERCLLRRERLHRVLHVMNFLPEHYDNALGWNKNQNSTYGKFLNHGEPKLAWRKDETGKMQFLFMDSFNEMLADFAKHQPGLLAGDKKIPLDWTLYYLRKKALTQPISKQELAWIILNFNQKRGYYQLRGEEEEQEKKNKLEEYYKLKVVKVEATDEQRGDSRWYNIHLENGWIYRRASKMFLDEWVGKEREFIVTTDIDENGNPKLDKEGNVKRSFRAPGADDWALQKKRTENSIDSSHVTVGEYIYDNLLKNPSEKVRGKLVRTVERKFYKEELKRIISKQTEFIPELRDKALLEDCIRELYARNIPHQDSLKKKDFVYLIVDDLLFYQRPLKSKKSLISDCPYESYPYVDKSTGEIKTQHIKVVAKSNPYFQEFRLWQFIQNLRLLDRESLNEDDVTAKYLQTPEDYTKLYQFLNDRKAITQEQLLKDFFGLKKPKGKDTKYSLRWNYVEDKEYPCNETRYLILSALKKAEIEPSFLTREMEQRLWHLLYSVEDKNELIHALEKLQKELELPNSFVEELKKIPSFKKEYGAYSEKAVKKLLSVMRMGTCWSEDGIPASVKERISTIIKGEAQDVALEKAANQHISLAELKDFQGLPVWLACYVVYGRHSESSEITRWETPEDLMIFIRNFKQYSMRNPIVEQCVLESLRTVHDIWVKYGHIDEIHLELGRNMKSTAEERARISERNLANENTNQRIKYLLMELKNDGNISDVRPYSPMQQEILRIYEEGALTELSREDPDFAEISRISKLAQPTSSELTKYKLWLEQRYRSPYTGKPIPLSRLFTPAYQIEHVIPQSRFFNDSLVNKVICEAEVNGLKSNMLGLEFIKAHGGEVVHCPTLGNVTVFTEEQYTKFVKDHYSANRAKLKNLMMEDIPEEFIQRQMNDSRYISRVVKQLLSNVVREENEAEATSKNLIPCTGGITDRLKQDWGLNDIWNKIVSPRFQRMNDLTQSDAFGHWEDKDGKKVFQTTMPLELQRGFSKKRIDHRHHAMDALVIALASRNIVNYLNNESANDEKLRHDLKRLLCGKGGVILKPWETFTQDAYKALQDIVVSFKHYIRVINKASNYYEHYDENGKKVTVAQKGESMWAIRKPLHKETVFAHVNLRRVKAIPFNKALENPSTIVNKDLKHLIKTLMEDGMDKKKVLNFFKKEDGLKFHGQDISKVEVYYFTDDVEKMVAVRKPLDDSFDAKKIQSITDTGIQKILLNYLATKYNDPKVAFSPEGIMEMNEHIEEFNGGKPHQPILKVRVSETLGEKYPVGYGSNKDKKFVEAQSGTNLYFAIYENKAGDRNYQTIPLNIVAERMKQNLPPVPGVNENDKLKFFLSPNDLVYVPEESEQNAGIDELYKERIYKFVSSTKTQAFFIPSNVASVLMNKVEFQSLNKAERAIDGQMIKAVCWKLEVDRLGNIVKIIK

GGAAGAGCAGAGCCUUGGUCUCGUUUGAGAGUCGUGCUGGAAACAACACGACGGGUUCAAAUACGGCUUUGCCAAAACCGCUGGUUUGAUCCAGCUUCACAGUGUGUGAGGGUAAAAAGUCCGCUAUGCGGACUUUUUUU / GGAAGAGCAGAGCCTTGGTCTCNNNNNNNN / NNNNNNNNGAGACCAAGGCTCTGCTCTTCC [T2 sgRNA 15 V1 ; T2 protospacer + 8N PAM library (pbPOS T2)]
activity (1-depletion score) [1]: 0.95

GGAAGAGCAGAGCCUUGGUCUCGUUUUGCUACCCUAAAUUAGAAAAAUAUUAGGACCUAGCAAAACAAGGCUUUAUGCCGAAAUCGGAGUCGACGGGCUCCUUUUUU / GGAAGAGCAGAGCCTTGGTCTCNNNNNNNN / NNNNNNNNGAGACCAAGGCTCTGCTCTTCC [T2 sgRNA 7 V1 ; T2 protospacer + 8N PAM library (pbPOS T2)]
activity (1-depletion score) [2]: 0.57

GGAAGAGCAGAGCCUUGGUCUCGUUGUGAAUUGCUUUCGAAAGAAGCAAUUCACAAUAAGGAUUAUUCCGUUGUGAAAACAUCAGGAGCGGGUUCUACUCGCUCUUUUUU / GGAAGAGCAGAGCCTTGGTCTCNNNNNNNN / NNNNNNNNGAGACCAAGGCTCTGCTCTTCC [T2 sgRNA 10 V1 ; T2 protospacer + 8N PAM library (pbPOS T2)]
activity (1-depletion score) [3]: 0.93

GGAAGAGCAGAGCCUUGGUCUCGUUGUGAAUUGCUUUCGAAAGAAAGCAAUUCACAAUAAGGAUUAUUCCGUUGUGAAAACAUUUAGGACGGGGCAACUCGUCCUUUGUUUUUUU / GGAAGAGCAGAGCCTTGGTCTCNNNNNNNN / NNNNNNNNGAGACCAAGGCTCTGCTCTTCC [T2 sgRNA 9 V1 ; T2 protospacer + 8N PAM library (pbPOS T2)]
activity (1-depletion score) [4]: 0.93

From patent publication US20240425885
